For one substance, impairment by ISO (10 uM) of the relaxation of HASM cells (endogenous receptors) to the TAS2R14 agonist FFA (100 uM), magnetic twisting cytometry results are on record in article PMC5016158.

This test has as its target Lucy-Flag-rsstr3-TAS2R14-HSV (rat | human) (UniProt P30936).
UniProt P30936, sequence (P30936 whole entry): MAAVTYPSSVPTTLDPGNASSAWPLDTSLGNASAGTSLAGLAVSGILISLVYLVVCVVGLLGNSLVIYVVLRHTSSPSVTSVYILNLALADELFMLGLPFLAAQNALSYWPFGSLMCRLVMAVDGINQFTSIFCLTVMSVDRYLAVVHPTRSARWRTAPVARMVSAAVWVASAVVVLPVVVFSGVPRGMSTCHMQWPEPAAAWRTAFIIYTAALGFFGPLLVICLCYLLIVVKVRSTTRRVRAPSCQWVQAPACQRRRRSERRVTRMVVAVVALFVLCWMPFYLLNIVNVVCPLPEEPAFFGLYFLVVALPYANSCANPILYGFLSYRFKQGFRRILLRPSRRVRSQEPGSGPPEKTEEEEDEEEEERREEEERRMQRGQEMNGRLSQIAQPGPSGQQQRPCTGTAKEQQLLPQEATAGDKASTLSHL

“HA-β2AR (from UniProt P07550 1-413) (receptor)” yielded an impairment by ISO (10 uM) of the relaxation of HASM cells (endogenous receptors) to the TAS2R14 agonist FFA (100 uM), magnetic twisting cytometry of 50%.
